Source: patent publication US20260125477A1 (BEIJING MABWORKS BIOTECH, published 2026)
Blank lines part the entries; values can stand above or below the binder they belong to.

What was measured:
[1] = target: T1, recombinant human CD80 protein (human B7-1/CD80 protein, with His tag) (human, UniProt P33681 35-242); assay: SPR (Biacore T200), antibody captured on Protein A chip
T1 construct: Bought protein
T1 sequence (looked up): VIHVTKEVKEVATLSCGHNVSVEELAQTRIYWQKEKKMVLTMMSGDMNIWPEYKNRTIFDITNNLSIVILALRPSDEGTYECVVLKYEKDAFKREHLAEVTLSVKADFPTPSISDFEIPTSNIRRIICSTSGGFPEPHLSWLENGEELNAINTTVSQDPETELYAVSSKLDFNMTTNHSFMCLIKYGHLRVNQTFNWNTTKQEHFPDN
Method: (§1) The anti-human B7-H3 antibodies were tested for their binding capability to B7 family proteins by SPR using Biacore T200 biosensor (Biacore, US) provided with a pre-fixed Protein A sensor chip.
(§2) The dissociation was monitored for 600 sec. The data was analyzed using Biacore 8k evaluation software version 3.0, to obtain the binding responses, and the protein concentration-binding response curves were plotted, to determine the cross-reaction of the anti-human B7-H3 antibodies to the B7 family proteins.

[2] = target: T2, human B7-H5/Gi24/VISTA protein, with His tag (MALS verified) (human, UniProt Q9H7M9 33-194); assay: as above
T2 construct: Bought protein
T2 sequence (looked up): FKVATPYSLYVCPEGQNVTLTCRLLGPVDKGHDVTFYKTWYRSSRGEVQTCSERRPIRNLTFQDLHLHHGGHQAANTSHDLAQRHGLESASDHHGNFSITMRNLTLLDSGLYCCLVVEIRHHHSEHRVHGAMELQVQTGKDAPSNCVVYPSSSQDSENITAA
Method: as §1, §2

[3] = target: T1, recombinant human CD80 protein (human …); assay: SPR (Biacore T200), 6B5 captured on Protein A chip; response against concentration
Method: as §1, §2

[4] = target: T3, human B7-2/CD86 protein, with His tag (human, UniProt P42081 26-247, limits assumed); assay: as above
T3 construct: Bought protein
T3 sequence (looked up): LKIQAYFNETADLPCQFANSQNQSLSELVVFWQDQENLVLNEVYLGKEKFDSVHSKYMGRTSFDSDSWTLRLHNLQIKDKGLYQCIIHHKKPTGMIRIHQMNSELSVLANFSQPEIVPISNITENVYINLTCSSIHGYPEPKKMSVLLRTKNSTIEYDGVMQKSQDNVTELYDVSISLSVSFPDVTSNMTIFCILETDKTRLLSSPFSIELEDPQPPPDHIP
Method: as §1, §2

[5] = target: T4, human PD-L1/B7-H1 protein, with His tag (human, UniProt Q9NZQ7 19-238); assay: as above
T4 construct: Bought protein
Method: as §1, §2

[6] = target: T5, human B7-H2/ICOSLG protein, with His tag (human, UniProt O75144 19-258, limits assumed); assay: as above
T5 construct: Bought protein
T5 sequence (looked up): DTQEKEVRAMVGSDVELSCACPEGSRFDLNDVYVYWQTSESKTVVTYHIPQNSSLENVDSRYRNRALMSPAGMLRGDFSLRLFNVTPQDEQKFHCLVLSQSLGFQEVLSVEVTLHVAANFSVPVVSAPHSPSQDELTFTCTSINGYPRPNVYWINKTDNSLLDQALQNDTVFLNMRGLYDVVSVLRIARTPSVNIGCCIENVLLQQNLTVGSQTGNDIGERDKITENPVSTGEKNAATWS
Method: as §1, §2

[7] = target: T6, human B7-H4 protein, with His tag (MALS verified) (human, UniProt Q7Z7D3 29-258, limits assumed); assay: as above
T6 construct: Bought protein
T6 sequence (looked up): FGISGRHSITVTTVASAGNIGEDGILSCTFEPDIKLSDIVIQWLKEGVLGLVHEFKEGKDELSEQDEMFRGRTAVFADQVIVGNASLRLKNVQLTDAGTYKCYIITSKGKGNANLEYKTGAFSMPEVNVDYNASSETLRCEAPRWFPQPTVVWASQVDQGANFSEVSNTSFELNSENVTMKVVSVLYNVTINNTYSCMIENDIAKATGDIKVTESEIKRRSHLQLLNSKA
Method: as §1, §2

[8] = target: T2, human B7-H5/Gi24/VISTA protein, with …; assay: as above
Method: as §1, §2

[9] = target: T7, human B7-H7/HHLA2 protein, with His tag (MALS verified) (human, UniProt Q9UM44 23-344, limits assumed); assay: as above
T7 construct: Bought protein
T7 sequence (looked up): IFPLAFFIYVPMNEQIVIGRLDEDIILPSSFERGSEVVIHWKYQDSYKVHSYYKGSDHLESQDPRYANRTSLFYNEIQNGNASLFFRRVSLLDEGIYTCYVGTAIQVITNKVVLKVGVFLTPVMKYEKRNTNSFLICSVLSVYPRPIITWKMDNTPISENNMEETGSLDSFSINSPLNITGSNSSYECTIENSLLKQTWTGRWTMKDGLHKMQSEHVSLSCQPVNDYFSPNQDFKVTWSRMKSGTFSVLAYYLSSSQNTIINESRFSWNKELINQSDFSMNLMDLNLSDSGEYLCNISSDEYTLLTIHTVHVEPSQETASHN
Method: as §1, §2

T4 sequence (Q9NZQ7 19-238 limits assumed): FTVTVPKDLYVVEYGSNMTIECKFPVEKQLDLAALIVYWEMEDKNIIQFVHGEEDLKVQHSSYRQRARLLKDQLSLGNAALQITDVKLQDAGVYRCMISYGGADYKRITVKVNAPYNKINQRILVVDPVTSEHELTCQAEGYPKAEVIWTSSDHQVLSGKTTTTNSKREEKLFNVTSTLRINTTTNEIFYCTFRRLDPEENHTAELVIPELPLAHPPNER

binding result [1]: no binding (tested: 200 nM) | binding result [2]: no binding (tested: 200 nM)
B1: 10D7 (antibody, human IgG1, kappa, V domains shown)
VH: QVQLVQSGPGLVKPSETLSLTCTVSGGSISRSSYYWGWIRQPPGKGLEWIGNIFYAGSTYYNPSLKSRVTISVDTSKNQFSLKLSSVTAADTAVYYCARRITGTTGWFDPWGQGTLVTVSS
VL: DIQLTQSPSSLSASVGDRVTITCRASQGIRNDLGWYQQKPGKAPKLLIYAASTLQSGVPSRFSGSGSGTDFTLTISSLQPEDFATYYCLQDYNYPRTFGQGTKVEIKR
notes: also called 10D7-WT; Ab10D7

binding result [3]: no binding (tested: 200 nM) | binding result [4]: no binding (tested: 200 nM) | binding result [5]: no binding (tested: 200 nM) | binding result [6]: no binding (tested: 200 nM) | binding result [7]: no binding (tested: 200 nM) | binding result [8]: no binding (tested: 200 nM) | binding result [9]: no binding (tested: 200 nM)
B2: 6B5 (antibody, human IgG1, kappa, V domains shown)
VH: QVQLVESGPGLVKPSQTLSLTCTVSDGSISSGGYYWSWIRQHPGKGLEWIGYIYYSGGTYYSPSLKSRVTISVDTSKNQFSLKLTSVTAADTAVYYCARRAGYSSSFDSWGQGILVTVSS
VL: EIVLTQSPLSLPVTPGEPASISCRSSQSLLYSNGYTYLDWYLQKPGQSPQFLIYLGFNRASGVPDRFSGSGSGTDFTLKISRVEAEDVGVYYCMQGLQTPYTFGQGTKLEIKR
notes: also called 6B5-WT; Ab6B5

binding result [1]: no binding (tested: 200 nM) | binding result [2]: no binding (tested: 200 nM)
B3: 10F5 (antibody, human IgG1, kappa, V domains shown)
VH: QVQLVQSGAEVKKPGSSVKVSCKASGGTFSSQAISWVRQAPGQGLEWMGRIIPMLGIGDYAQSFQGRVTITADKSTSTAYLEVSSLGSEDTAVYYCAREGIAALGTNYYYGMDVWGQGTAVTVSS
VL: EIVMTQSPSSVSASVGDRVTITCRASQGISRWLAWYQQKPGKAPKLLIYVASSLQSGVPSRFSGSGSGTDFTLTISSLQPEDFATYYCQQANSFPFTFGPGTKVDIRR
notes: also called Ab10F5
